This is an account of results in article PMC8716364, “A Redox-Sensitive Cysteine Is Required for PIN1At Function” (Frontiers in Plant Science, 2021).

In one data set the target is Cys69 (UniProt position 69, TRVSDCSSAKR). Kind of data set: chemical modification. As to conditions: 25 °C; sodium citrate or phosphate buffer (concentration not stated); reduced (DTT-treated and desalted), free enzyme, monomer.
Data set [1] concerns the molecule itself. The data set can be described thus: non-reducing SDS-PAGE after alkylation with mPEG-maleimide; 20 μM reduced PIN1At with 25- or 100-fold excess H2O2 (500 μM or 2 mM), 30 min, TE buffer; one sample then 10 mM DTT 30 min; free thiols alkylated with 2 kDa mPEG-maleimide, non-reducing 15% SDS-PAGE.
Data set [2] concerns the molecule itself. Kind of data set: SEC-MALS; 76 μM (300 μg) reduced PIN1At incubated 30 min with 100 μM to 2.5 mM H2O2, 30 mM Tris-HCl pH 8.0, 200 mM NaCl, Superdex200 10/300; disulfide-bridged dimer. (In gel filtration, larger molecules generally elute earlier.)

The pKa is the pH at which an ionisable group is half protonated. Consider “PIN1At (PAR1), peptidyl-prolyl cis-trans isomerase Pin1, single-domain parvulin (Arabidopsis thaliana)”, for which the pKa with Cys69 amounted to 4.9±0.1.

B1: Arabidopsis PIN1At, N-terminal His-tagged recombinant protein (enzyme, Arabidopsis thaliana, UniProt Q9SL42 1-119, looked up)
chain: MASRDQVKASHILIKHQGSRRKASWKDPEGKIILTTTREAAVEQLKSIREDIVSGKANFEEVATRVSDCSSAKRGGDLGSFGRGQMQKPFEEATYALKVGDISDIVDTDSGVHIIKRTA
notes: also called His-tagged PIN1At; not shown: His6, N-terminal, kept
Consider B1, for which the binding result in data set [1] is reported as “binds”.

B2: Arabidopsis PIN1At, untagged recombinant protein (enzyme, Arabidopsis thaliana, UniProt Q9SL42 2-119, looked up)
chain: ASRDQVKASHILIKHQGSRRKASWKDPEGKIILTTTREAAVEQLKSIREDIVSGKANFEEVATRVSDCSSAKRGGDLGSFGRGQMQKPFEEATYALKVGDISDIVDTDSGVHIIKRTA
notes: Single cysteine, Cys69; the printed masses (12.3 kDa, 12,882.7 Da; theoretical 13,014.7 Da) fit the untagged protein; also called PAR1; PIN1At/PAR1; source: E. coli BL21 (DE3) with pSBET, pET12a, purified (ammonium sulfate, ACA44 gel filtration, DEAE-Sephacel)
Usually stoichiometry N stands for a count of units in the complex or per binding partner. Turning to B2, in data set [2], the “stoichiometry N” value came to 2.
